This note sets out measurements from article doi:10.1101/605725.

The target in the series is GST-Nxf2 first LRR region (1-285) (UniProt Q9VV73 1-285). The series is described as follows: EMSA.
Chain of GST-Nxf2 first LRR region (1-285) (Q9VV73 1-285): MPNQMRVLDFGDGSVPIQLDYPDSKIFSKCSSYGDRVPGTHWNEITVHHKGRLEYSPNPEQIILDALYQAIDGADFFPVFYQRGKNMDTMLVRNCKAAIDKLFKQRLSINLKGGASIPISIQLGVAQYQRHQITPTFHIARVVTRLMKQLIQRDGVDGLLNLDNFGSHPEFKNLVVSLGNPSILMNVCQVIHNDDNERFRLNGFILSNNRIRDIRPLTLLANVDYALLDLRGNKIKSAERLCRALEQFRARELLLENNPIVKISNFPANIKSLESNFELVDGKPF

Consider AGCACCGUAAAGACGC (ssRNA) [16-mer ssRNA], for which the binding result was “binds”.
